According to the supplement of paper PMC10724198:

Columns and labels:
Saccharomyces cerevisiae [1] = assay: protein stability index of tFT-peptide fusion in deletion strain of DAS1 (PSI (0-1 scale)); higher = more stable (slower turnover)
Procedure: (§1)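 MPS profiling in S. cerevisiae of two library types built from selected 12-aa C-degron peptides (IN1, IN2, LN1, LN3, VN2, R1-R5, W1-W3, Atg1 and Rpa12 C-termini): saturation mutagenesis libraries and C-terminal +1 capping libraries (13 aa). Each peptide is fused to the C-terminus of a sfGFP-mCherry timer, after a GGGS linker. Cells are FACS-sorted into 8 mCherry/sfGFP bins and sequenced. PSI runs from 0 (unstable) to 1 (stable), measured once in wild type and in the das1Δ or doa10Δ background.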

Saccharomyces cerevisiae [2] = assay: protein stability index of tFT-peptide fusion in wild type (PSI (0-1 scale)); higher = more stable (slower turnover); conditions: genetic background: wild type
Procedure: as §1
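Throughout, for protein stability index of tFT-peptide fusion in deletion strain of DAS1: PSI is a weighted mean of each variant's read distribution over the sorted stability bins, computed only for variants having over 10 reads in total.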
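Throughout, for protein stability index of tFT-peptide fusion in wild type: PSI derived as read-weighted mean over the 8 sorting bins, only variants exceeding 10 total reads kept, mCherry placed adjacent to the peptide and sfGFP distal.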

Sequence	protein stability index (Saccharomyces cerevisiae [1])	protein stability index (Saccharomyces cerevisiae [2])
LKILRQKMRHQN	0.669	0.301
LKILRQKRNHQN	0.669	0.299
LKILRQKTNHQN	0.69	0.403
LKILRQRMNHQN	0.662	0.251
LKIPRQKMNHQN	0.679	0.484
LKISRQKMNHQN	0.677	0.323
LKRLRQKMNHQN	0.666	0.202
LKTLRQKMNHQN	0.672	0.205
LKWLRQKMNHQN	0.697	0.146
LLILRQKMNHQN	0.673	0.155
LLIQPLPVQFLN	0.624	0.0661
LSVYLSCVACIN	0.145	0.0226
LVEYLSCVACIN	0.373	0.247
LVVDLSCVACIN	0.367	0.137
LVVLLSCVACIN	0.0371	0.0235
LVVYLICVACIN	0.0584	0.0186
LVVYLSCFACIN	0.0433	0.0181
LVVYLSCVACIF	0.029	0.0136
LVVYLSCVACII	0.0431	0.0175
LVVYLSCVACINQ	0.207	0.187
LVVYLSCVACIW	0.0367	0.0175
LVVYLSCVACQN	0.097	0.0434

Sequence	protein stability index (Saccharomyces cerevisiae [1])	protein stability index (Saccharomyces cerevisiae [2])
LVVYLSCVAEIN	0.0269	0.0146
LVVYLSCVAMIN	0.032	0.0127
LVVYLSCVASIN	0.0412	0.0148
LVVYLSCVAWIN	0.0302	0.0134
LVVYLSCVTCIN	0.0605	0.0223
LVVYLSLVACIN	0.0617	0.0258
LVVYLSPVACIN	0.278	0.18
LVVYLSVVACIN	0.0878	0.0255
LVVYYSCVACIN	0.0266	0.0106
PDERNHLIKLLN	0.566	0.179
PDKLNHLIKLLN	0.609	0.133
PDKRLHLIKLLN	0.629	0.126
PDKRNHLDKLLN	0.578	0.574
PDKRNHLIELLN	0.702	0.272
PDKRNHLIFLLN	0.687	0.116
PDKRNHLIHLLN	0.586	0.0992
PDKRNHLIKDLN	0.557	0.628
PDKRNHLIKLLNA	0.665	0.13
PDKRNHLIKLLNE	0.662	0.564
PDKRNHLIKLLNG	0.662	0.17
PDKRNHLIKLLNT	0.663	0.144
PDKRNHLIKLLNY	0.657	0.16
